From paper PMC4333373, “Specific and non-specific interactions of ParB with DNA: implications for chromosome segregation” (Nucleic Acids Research, 2015) come the findings set out here.

This series deals with the molecule itself. Briefly: SEC-MALS; ParB alone, no DNA; 9 or 80 uM ParB2; Superdex 200 in 50 mM Hepes-KOH, 150 mM KCl, 2.5 mM MgCl2, 2 mM beta-mercaptoethanol; monomer and dimer.

B1: Bacillus subtilis ParB (natural protein, UniProt P26497 1-282, looked up)
chain: MAKGLGKGINALFNQVDLSEETVEEIKIADLRPNPYQPRKHFDDEALAELKESVLQHGILQPLIVRKSLKGYDIVAGERRFRAAKLAGLDTVPAIVRELSEALMREIALLENLQREDLSPLEEAQAYDSLLKHLDLTQEQLAKRLGKSRPHIANHLRLLTLPENIQQLIAEGTLSMGHGRTLLGLKNKNKLEPLVQKVIAEQLNVRQLEQLIQQLNQNVPRETKKKEPVKDAVLKERESYLQNYFGTTVNIKRQKKKGKIEIEFFSNEDLDRILELLSERES
notes: ParB (Spo0J) of Bacillus subtilis 168; the parB gene was amplified from genomic DNA and cloned into pET28a(+); native (untagged) protein; intact monomer has a theoretical weight of 32.2 kDa; Untagged; also called Spo0J; ParB2 (the dimer); source: E. coli BL21 (DE3), pET28a-ParB, purified (ammonium sulphate cuts, HiTrap Heparin, Mono S; some preparations also Superdex S75)
For B1, the “stoichiometry N” value worked out at 2.
